Values belong to the molecule of their own block, whether it stands above or below them.
Experiments:
CD33 (human) [1] = target: CD33 (human) (UniProt P20138); experiment: direct binding on HL-60 whole cells; direct on cells
CD33 (human) [2] = target: CD33 (human) (UniProt P20138); experiment: direct binding on HL-60 membranes; direct on membranes
CD33 (human) [3] = target: CD33 (human) (UniProt P20138); experiment: competitive binding on HL-60 membranes; competitive on membranes
CD33 = target: T1, CD33 (human, UniProt P20138 18-364); experiment: flow cytometry on HL-60 cells
T1 construct: whole, on cells; Presented on U-937 cells, HL-60 whole cells, dried HL-60 plasma membranes, THP-1 cells and CD33-transfected 3T3 murine fibroblasts; also called CD33 antigen; human CD33
Experimental: HL-60 cells were incubated with various concentrations of either My9-6 antibody or My9-6-DM1. The cells were then washed and incubated with a secondary FITC-labeled anti-murine IgG antibody. Following an additional wash, cells were fixed with 2% formaldehyde and cell-associated fluorescence was quantified using a BD FACScan flow cytometer.

Chain of CD33 (human) (P20138 18-364): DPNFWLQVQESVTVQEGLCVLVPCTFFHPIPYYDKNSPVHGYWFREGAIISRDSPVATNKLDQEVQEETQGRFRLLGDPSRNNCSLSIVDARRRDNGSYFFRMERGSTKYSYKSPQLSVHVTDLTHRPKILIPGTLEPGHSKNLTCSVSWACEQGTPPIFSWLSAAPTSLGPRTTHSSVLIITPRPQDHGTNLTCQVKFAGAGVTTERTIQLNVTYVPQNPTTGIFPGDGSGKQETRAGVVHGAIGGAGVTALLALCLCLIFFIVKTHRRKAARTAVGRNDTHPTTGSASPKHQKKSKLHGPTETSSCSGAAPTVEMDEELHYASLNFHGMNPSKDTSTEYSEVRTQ
T1 sequence (P20138 18-364): as above

Kd (CD33 (human) [1]): 1.1 nM
Kd (CD33 (human) [2]): 0.0513 nM
Kd (CD33 (human) [3]): 0.174 nM
Molecule: murine My9-6 antibody

binding result (CD33): binds
B1: My9-6-DM1 immunoconjugate (antibody, IgG1, V domains shown)
VH: QVQLQQPGAEVVKPGASVKMSCKASGYTFTSYYIHWIKQTPGQGLEWVGVIYPGNDDISYNQKFKGKATLTADKSSTTAYMQLSSLTSEDSAVYYCAREVRLRYFDVWGAGTTVTVSS
VL: NIMLTQSPSSLAVSAGEKVTMSCKSSQSVFFSSSQKNYLAWYQQIPGQSPKLLIYWASTRESGVPDRFTGSGSGTDFTLTISSVQSEDLAIYYCHQYLSSRTFGGGTKLEIKR
modifications: DM1 (thiol-containing maytansinoid) linked by disulfide through SPP; 3-5 pyridyldithio groups introduced per molecule of antibody; residues and chain not stated
